PMC6123443, “Selective Pressure for Biofilm Formation in Bacillus subtilis: Differential Effect of Mutations in the Master Regulator SinR on Bistability” (mBio, 2018)

B3: SinR^S43A (natural protein, B. subtilis)
chain: MIGQRIKQYRKEKGYSLSELAEKAGVAKSYLSSIERNLQTNPAIQFLEKVSAVLDVSVHTLLDEKHETEYDGQLDSEWEKLVRDAMTSGVSKKQFREFLDYQKWRKSQKEE
notes: SinR, Bacillus subtilis, with S43A; allele amplified from chromosomal DNA of the suppressor mutant with primer pair G8/G10, cloned in pET24a (NdeI/EcoRI); Spontaneous suppressor allele isolated in the laboratory from a ymdB mutant; source: E. coli BL21(DE3), purified (heparin Sepharose, size exclusion)
B4: SinR^W104R (natural protein, B. subtilis)
chain: MIGQRIKQYRKEKGYSLSELAEKAGVAKSYLSSIERNLQTNPSIQFLEKVSAVLDVSVHTLLDEKHETEYDGQLDSEWEKLVRDAMTSGVSKKQFREFLDYQKRRKSQKEE
notes: SinR, Bacillus subtilis, with W104R; allele amplified from chromosomal DNA of the suppressor mutant with primer pair G8/G10, cloned in pET24a (NdeI/EcoRI); Spontaneous suppressor allele isolated in the laboratory from a ymdB mutant; source: E. coli BL21(DE3), purified (heparin Sepharose, size exclusion)
B6: SinR^A85T (natural protein, B. subtilis)
chain: MIGQRIKQYRKEKGYSLSELAEKAGVAKSYLSSIERNLQTNPSIQFLEKVSAVLDVSVHTLLDEKHETEYDGQLDSEWEKLVRDTMTSGVSKKQFREFLDYQKWRKSQKEE
notes: SinR, Bacillus subtilis, with A85T; allele amplified from chromosomal DNA of the suppressor mutant with primer pair G8/G10, cloned in pET24a (NdeI/EcoRI); Spontaneous suppressor allele isolated in the laboratory from a ymdB mutant; source: E. coli BL21(DE3), purified (heparin Sepharose, size exclusion)
B7: SinR^W104L (natural protein, B. subtilis)
chain: MIGQRIKQYRKEKGYSLSELAEKAGVAKSYLSSIERNLQTNPSIQFLEKVSAVLDVSVHTLLDEKHETEYDGQLDSEWEKLVRDAMTSGVSKKQFREFLDYQKLRKSQKEE
notes: SinR, Bacillus subtilis, with W104L; allele amplified from chromosomal DNA of the suppressor mutant with primer pair G8/G10, cloned in pET24a (NdeI/EcoRI); Spontaneous suppressor allele isolated in the laboratory from a ymdB mutant; source: E. coli BL21(DE3), purified (heparin Sepharose, size exclusion)

What was measured:
[1] = target: B3; test: fluorescence polarisation; displacement of fluorescein-labelled 21-bp operator DNA (10 nM) from 5 µM SinR by SinI titrated from 50 µM to 10 nM; 10 mM Tris-HCl pH 8.0, 100 mM NaCl, 1 mM EDTA; qualitative; details: both partners purified
[2] = target: B6; test: as above; details: both partners purified
[3] = target: B7; test: as above; details: both partners purified
[4] = target: B4; test: as above; details: both partners purified
[5] = target: the molecule itself; test: SEC-MALS; SinR proteins at 5 mg/ml (equivalent to 400 µM), 150 µl on Superdex 200 Increase 10/300 GL, 50 mM Tris-HCl pH 8.0, 250 mM NaCl, 0.5 ml/min; refractive index at 25°C
[6] = target: T1, SinR W104R (Bacillus subtilis, UniProt P06533 1-111, W104R); test: fluorescence polarization; 10 mM Tris-HCl pH 8.0, 100 mM NaCl, 1 mM EDTA; 10 nM labeled duplex, SinR diluted from 20 uM; temperature not stated; details: protein: recombinant; tags: none (pET24a, native stop codon in primer G10); chain copies: 2; label: 5'-fluorescein (FAM) on strand 1; blunt
T1 sequence: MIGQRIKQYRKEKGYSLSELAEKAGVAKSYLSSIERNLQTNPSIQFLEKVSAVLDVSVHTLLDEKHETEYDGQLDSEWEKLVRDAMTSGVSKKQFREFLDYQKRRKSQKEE

[7] = target: T2, SinR A85T (Bacillus subtilis, UniProt P06533 1-111, A85T); test: as above; details: protein: recombinant; tags: none (pET24a, native stop codon in primer G10); chain copies: 4; label: 5'-fluorescein (FAM) on strand 1; blunt
T2 sequence: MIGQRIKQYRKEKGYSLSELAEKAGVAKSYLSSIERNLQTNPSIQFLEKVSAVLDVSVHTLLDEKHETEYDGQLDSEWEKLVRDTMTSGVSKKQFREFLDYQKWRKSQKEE

[8] = target: T3, SinR S43A (Bacillus subtilis, UniProt P06533 1-111, S43A); test: as above; details: protein: recombinant; tags: none (pET24a, native stop codon in primer G10); chain copies: 4; label: 5'-fluorescein (FAM) on strand 1; blunt
T3 sequence: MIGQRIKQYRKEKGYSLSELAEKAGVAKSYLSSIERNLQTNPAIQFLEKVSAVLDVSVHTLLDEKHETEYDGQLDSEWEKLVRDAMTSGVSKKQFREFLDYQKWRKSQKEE

[9] = target: T4, SinR W104L (Bacillus subtilis, UniProt P06533 1-111, W104L); test: as above; details: protein: recombinant; tags: none (pET24a, native stop codon in primer G10); chain copies: 2; label: 5'-fluorescein (FAM) on strand 1; blunt
T4 sequence: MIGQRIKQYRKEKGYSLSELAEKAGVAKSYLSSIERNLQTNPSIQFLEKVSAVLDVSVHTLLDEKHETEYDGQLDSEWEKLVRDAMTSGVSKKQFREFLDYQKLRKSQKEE

[10] = target: T5, SinR wild type (Bacillus subtilis, UniProt P06533 1-111); test: as above; details: protein: recombinant; tags: none (pET24a, native stop codon in primer G10); chain copies: 4; label: 5'-fluorescein (FAM) on strand 1; blunt
T5 sequence: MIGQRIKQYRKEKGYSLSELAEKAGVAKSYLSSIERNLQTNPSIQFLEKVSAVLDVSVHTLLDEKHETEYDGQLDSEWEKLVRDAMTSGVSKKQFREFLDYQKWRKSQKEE

[11] = target: T6, SinR K28T (Bacillus subtilis, UniProt P06533 1-111, K28T); test: fluorescence polarization; no polarization change up to 20 uM protein; 10 mM Tris-HCl pH 8.0, 100 mM NaCl, 1 mM EDTA; 10 nM labeled duplex, SinR diluted from 20 uM; temperature not stated; details: protein: recombinant; tags: none (pET24a, native stop codon in primer G10); chain copies: 4; label: 5'-fluorescein (FAM) on strand 1; blunt
T6 sequence: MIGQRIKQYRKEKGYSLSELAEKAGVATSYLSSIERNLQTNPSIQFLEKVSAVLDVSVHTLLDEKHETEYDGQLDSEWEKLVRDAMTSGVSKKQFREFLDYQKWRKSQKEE

B1: SinI (natural protein, B. subtilis, UniProt P23308 1-57, looked up)
chain: MKNAKQEHFELDQEWVELMVEAKEANISPEEIRKYLLLNKKSAHPGPAARSHTVNPF
notes: SinI, antagonist of SinR, Bacillus subtilis; sinI gene amplified by PCR with primer pair G6/G7 and cloned into plasmid pC2; also called SinR antagonist SinI; source: E. coli BL21(DE3), purified (ANX ion exchange, size exclusion)
**Q.** Does B1 bind [1]?
**A.** Result: binds

**Q.** Does B1 bind [2]?
**A.** Result: binds

**Q.** What about the “percent of SinR-bound DNA released by a 10-fold molar excess of SinI” value [3] of the same binder?
**A.** The value was ~60%.

**Q.** What about the “percent of SinR-bound DNA released by a 10-fold molar excess of SinI” value [4] of the same binder?
**A.** Its value is ~60%.

B2: SinR wild type (natural protein, B. subtilis)
chain: MIGQRIKQYRKEKGYSLSELAEKAGVAKSYLSSIERNLQTNPSIQFLEKVSAVLDVSVHTLLDEKHETEYDGQLDSEWEKLVRDAMTSGVSKKQFREFLDYQKWRKSQKEE
notes: SinR, master regulator of biofilm formation, Bacillus subtilis; sinR allele amplified from chromosomal DNA with primer pair G8/G10 and cloned between NdeI and EcoRI of pET24a; monomer printed as 12.85 kDa; The printed monomer mass of 12.85 kDa fits the whole protein of 111 residues; No tag is named and purification was by heparin and size exclusion; also called wild-type SinR; source: E. coli …
**Q.** With B2 as the binder, how does the “stoichiometry N” value [5] read?
**A.** Its value is 4.

**Q.** For B3, which “stoichiometry N” value [5] is on record?
**A.** The value was 4.

**Q.** For B4, which “stoichiometry N” value [5] is on record?
**A.** Its value is 2.

B5: SinR^K28T (natural protein, B. subtilis)
chain: MIGQRIKQYRKEKGYSLSELAEKAGVATSYLSSIERNLQTNPSIQFLEKVSAVLDVSVHTLLDEKHETEYDGQLDSEWEKLVRDAMTSGVSKKQFREFLDYQKWRKSQKEE
notes: SinR, Bacillus subtilis, with K28T; allele amplified from chromosomal DNA of the suppressor mutant with primer pair G8/G10, cloned in pET24a (NdeI/EcoRI); Spontaneous suppressor allele isolated in the laboratory from a ymdB mutant; source: E. coli BL21(DE3), purified (heparin Sepharose, size exclusion)
**Q.** How did the “stoichiometry N” value [5] turn out when B5 was run?
**A.** The value was 4.

**Q.** Which “stoichiometry N” value [5] does the source give for B6 here?
**A.** Its value is 4.

**Q.** For B7, which “stoichiometry N” value [5] is on record?
**A.** Its value is 2.

B8: eps operator inverted-repeat SinR box duplex, 21 bp (FAM1721/C-1723) (dsDNA)
DNA 1: ATTGTTCTCTAAAGAGAACTT
DNA 2: AAGTTCTCTTTAGAGAACAAT
**Q.** B8 was tested. Which Kd [6] did it give?
**A.** Its Kd is 2.58 ± 0.545 µM.

**Q.** And the Kd [7]?
**A.** Its Kd is 0.852 ± 0.039 µM.

**Q.** And the Kd [8]?
**A.** The Kd was 0.35 ± 0.081 µM.

**Q.** And the Kd [9]?
**A.** The Kd was 1.9 ± 0.298 µM.

**Q.** And the Kd [10]?
**A.** Its Kd is 0.179 ± 0.024 µM.

**Q.** Does B8 bind [11]?
**A.** Result: no binding
